# The supplement of paper PMC9732359
# ± gives the uncertainty stated by the source.
# Experiment: protein stability index of a GFP-peptide fusion (yeast GPS) (PSI 1-4); higher = more stable; sorted into four equal gates, so the index is relative within each strain
# Conditions: pdr5∆
# Outline: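 Tiled 17-residue peptides from yeast proteins were fused downstream of GFP on a plasmid that also expresses Cherry, and the pooled library was carried in yeast. Mid-log cultures grown in leucine-free medium were sorted into four equal gates by GFP/Cherry fluorescence ratio. Plasmids from each gate were PCR-amplified and Illumina-sequenced, and reads were assigned to strains by barcodes. Each peptide's protein stability index is the sum, over gates, of the gate's read frequency multiplied by its gate number.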
row,Sequence,protein stability index
1,AYSNTNTNTENENRNTG [SNF11],2.95 ± 0.065
2,CDILVATPGRLIDSLEN [PRP28],3.24 ± 0.11
3,CEQQPSQEREFSLLVKA [SIN4],3.07 ± 0.08

# Same assay, conditions: san1∆
row,Sequence,protein stability index
1,AHVNKVTEETTKQIQSV [SIR4],2.98 ± 0.041
2,AIIRLHPSIYTQVFNIL [POP1],1.2 ± 0.09
3,AIMSKSSLEELLLKDQQ [ECM29],2.83 ± 0.1
4,AINPGRVAASFSQEALQ [FAS1],2.63 ± 0.13
5,AINVFPEGYKAKSISTS [RPO31],2.27 ± 0.07
6,AIPNPEDVVAISSRTYG [RPS0B],2.99 ± 0.079
7,AKAKRRHTTGTGRMRYL [RPL37A],2.99 ± 0.16
8,AKDKEIYNKMIGVLNNS [RPN13],2.72 ± 0.053
9,AKINEVYNNSKDEYLAQ [NSL1],2.77 ± 0.048
10,AKKRKTLILIQNPENLL [SIR3],3.11 ± 0.092
11,AKKTSTSVDGKKRSKVR [HTB2],2.96 ± 0.27
12,AKLNHLKKLEKFMELER [SWI3],3.03 ± 0.054
13,AKPDNLANFSNEVAMNN [SWP82],3.13 ± 0.052
14,AKRDYIISRLNADFQKP [FAS1],2.94 ± 0.091
15,AKYHAKLNKKLQHLRSR [SRP68],3.26 ± 0.046
16,ALFLSKINRPPVSVSRI [RPL18A],1.6 ± 0.14
17,ALGQDTEKMEEQLDLLS [MED11],2.99 ± 0.073
18,ALHYLVPFIIAAMVIMH [COB],1.61 ± 0.15
19,ALIKFMEYHISNTDETK [FAS2],2.59 ± 0.12
20,ALKNACNSIINKLGALK [RPB11],2.95 ± 0.11
21,ALLGDKIYNFGELLHHP [RPN9],2.36 ± 0.29
22,ALLTVLKALSHHYNPKT [BRR2],1.91 ± 0.081
23,ALPDAVTIIEPKEEEPI [RPS3],3.06 ± 0.061
24,ALPHVEINQVSLALVIR [RGR1],2.24 ± 0.13

row,Sequence,protein stability index
1,ALRRRVGPSEQNFAEED [REC8],3.39 ± 0.11
2,ALVAGIERYPSKVTKKH [RPL27B],1.47 ± 0.12
3,ALYRVNDLRDMILNYNP [UBP6],2.81 ± 0.17
4,AMFEICLKRGWGHPTRM [BRR2],2.21 ± 0.14
5,AMHYSSNIELAFSSVEH [COB],1.91 ± 0.087
6,AMIALSMILIQQTEKLN [RPN2],1.45 ± 0.14
7,ANAVQNNNGNSAASKKK [SRP21],2.96 ± 0.092
8,ANFKTSKKYQLADWRIR [RRP6],2.84 ± 0.15
9,ANLRVLNSYWVNQDSTY [RPL15A],2.78 ± 0.058
10,ANNNGSNLQRAQNVPMN [GAL11],3.17 ± 0.099
11,ANNNINSASSAPTPAAP [SWI1],3.05 ± 0.078
12,ANNQEYDLNFKLRETLV [SMC1],3.63 ± 0.18
13,ANSQIQAYEEIISSNEN [YIL149C/MLP2],3.31 ± 0.22
14,ANSSITPAFGSNNTGNT [YJL041W/NSP1],2.72 ± 0.048
15,ANTSNNLFGATANANKP [YJL041W/NSP1],3.24 ± 0.043
16,ANVEILAVEDKPSPIDS [CSL4],2.57 ± 0.15
17,ANVVDITNDWEQPCVDI [YJR042W/NUP85],3.23 ± 0.051
18,ANYIKERTKNAQFIVIS [SMC4],1.49 ± 0.11
19,APEIPEDLYYLIKKAVS [RPS13],3.07 ± 0.079
20,APSIGRWYQLIATGCKD [YGL100W/SEH1],1.64 ± 0.11
21,AQAQAQAQAQAQAQAQA [GAL11],2.98 ± 0.026
22,AQAWINLGEYYAQIGDK [RPN7],2.8 ± 0.11
23,AQDEVFSLAFSPNRYWL [ASC1],2.54 ± 0.18
24,AQDFINAYASFLQRQGK [RPS19A],3.01 ± 0.06

row,Sequence,protein stability index
1,AQDFKTDLRFQSSAIGA [HHT1],1.24 ± 0.19
2,AQFIVISLRNNMFELAQ [SMC4],1.51 ± 0.092
3,AQFVSNKQYHQANSNLT [NUT1],3 ± 0.1
4,AQLTHSLRRIRDEMSKA [MED8],2.02 ± 0.11
5,AQYGIKALPIRRDDEVL [RPL26A],3.43 ± 0.061
6,ARAPKYASKAVPHYNRL [RPL25],2.79 ± 0.052
7,ARENAPSIIFIDEVDSI [RPT3],2.74 ± 0.06
8,ARKGLTPSQIGVLLRDA [RPS13],2.09 ± 0.21
9,ARKHKLKTLVQGPRSYF [RPS27A],2.27 ± 0.14
10,ARKYLQTRWGLPSGRQD [FAS2],2.12 ± 0.14
11,ARLPPRATNCRKRKCGH [RPL40A],3.2 ± 0.1
12,ARNLYIIAVKGSGSRLN [RPL23A],1.22 ± 0.088
13,ARTAANSIYCPTQTVAE [RPN6],1.42 ± 0.11
14,ASDMSDEDIITIFKYLT [CDC53],3.23 ± 0.082
15,ASELDESKDSIQDLIVK [SMC3],3.18 ± 0.13
16,ASEVATHSKLFADKKRD [PRP8],2.31 ± 0.079
17,ASEYIETLGLKYLGLKP [FAS1],3.26 ± 0.074
18,ASFFFMVMFMHMAKGLY [COB],1.67 ± 0.08
19,ASGFGFGGSQPNSGTAT [YGR119C/NUP57],2.4 ± 0.11
20,ASGSINRKVLQALEKIG [RPS19A],1.67 ± 0.11
21,ASHNEKDQDSQIELSCN [SRP72],2.9 ± 0.051
22,ASIGQAAEQQSKAFKES [SRP54],3.14 ± 0.096
23,ASKSGKLTQKLVTAGVA [CYT1],2.45 ± 0.062
24,ASLHSKELTRIPGEEVE [MED4],3.03 ± 0.12

row,Sequence,protein stability index
1,ASLNALKESIKNSTSSM [RPN1],3.06 ± 0.063
2,ASRHGQKGTIGITYRRE [RPB2],2.39 ± 0.082
3,ASSKAVTRGISVLKDSD [PRE1],2.89 ± 0.051
4,ASSSAKLIEKKSAYANT [SMC2],2.73 ± 0.079
5,ASSWAKKIAQRERRAAL [RPL14A],2.62 ± 0.18
6,ATDVEARAVQDNGESAF [RPL13A],1.56 ± 0.094
7,ATFSVSQASSDLGETFR [CSL4],3.23 ± 0.065
8,ATPGRLIDSLENHLLVM [PRP28],2.06 ± 0.11
9,ATPQDAQFYLGKRIAYV [RPL33A],2.57 ± 0.074
10,ATQSGGVRPFGVSLLIA [PRE8],1.4 ± 0.17
11,ATSFSRKKARTFDSSWN [FAS2],2.65 ± 0.16
12,ATTSVMMVNNQTMQLIK [SRB6],2.12 ± 0.1
13,AVAASSTKTGTPSDLSE [POP1],3.41 ± 0.045
14,AVARLKSMNKSAINQYN [SNF2],2.34 ± 0.052
15,AVCSTATVVSTNHSAAA [PGD1],2.59 ± 0.096
16,AVDLEHHDYRSYYGIVC [RRP6],2.37 ± 0.083
17,AVEFESVPLRKGDRALL [BRR2],2.98 ± 0.075
18,AVTHNLYYDEDINVESL [PUP2],3.05 ± 0.18
19,AVVQTVKGLLNTYKRLV [YJL039C/NUP192],1.92 ± 0.14
20,AYIKLLDQTKDTRITHL [SNF2],2.78 ± 0.06
21,AYILAAQKTSFEYEGVQ [RPN1],2.2 ± 0.15
22,AYPAAREQFLNAQDIDH [FAS1],2.84 ± 0.11
23,AYSNTNTNTENENRNTG [SNF11],2.95 ± 0.071
24,CDILVATPGRLIDSLEN [PRP28],3.2 ± 0.06
